Consider one molecule from US20230295344A1 (published 2023).

Assay in all cases: labelled AK1967 on biotinylated peptide on avidin plate, chemiluminescence
The target of assay [1] is T1, epitope mapping peptide #5.
T1 peptide: Biotin-AFNFDQETVINPETGE
The procedure: (§1) These peptides include the sequence of the full immunization peptide (SEQ ID No. 2) or fragments thereof, with stepwise removal of one amino acid from either C- or N-terminus (see table 5 for a complete list of peptides).
(§2) High binding 96 well plates were coated with 2 µg Avidin per well (Greiner Bio-One international AG, Austria) in coupling buffer (500 mM Tris-HCl, pH 7.8, 100 mM NaCl). Afterwards plate were washed and filled with specific solutions of biotinylated peptides (10 ng/ well; buffer – 1xPBS with 0.5% BSA)
(§3) The plates were filled with 200 µl of labeled and diluted detection antibody (tracer) and incubated for 4 h at room temperature. Unbound tracer was removed by washing 4 times with 350 µl washing solution (20 mM PBS, pH 7.4, 0.1 % Triton X-100). Well-bound chemiluminescence was measured by using the Centro LB 960 luminometer (Berthold Technologies GmbH & Co. KG).

For assay [2], the target named is T2, epitope mapping peptide #14.
T2 construct: final K stands where DPP3 has R
T2 peptide: INPETGEQIQSWYK(Biotin)
The method, then:
as §1, §2, §3

Assay [3] has as its target T3, epitope mapping peptide #9.
T3 peptide: Biotin-AFNFDQETVINP
The procedure: as §1, §2, §3

The target in assay [4] is T4, epitope mapping peptide #2.
T4 peptide: Biotin-AFNFDQETVINPETGEQIQ
The method, then:
as §1, §2, §3

Assay [5] deals with T5, epitope mapping peptide #12.
T5 construct: final K stands where DPP3 has R
T5 peptide: PETGEQIQSWYK(Biotin)
The procedure:
as §1, §2, §3

Assay [6] deals with T6, epitope mapping peptide #10.
T6 peptide: Biotin-AFNFDQETVIN
The method, then:
as §1, §2, §3

Assay [7] has as its target T7, epitope mapping peptide #13.
T7 construct: final K stands where DPP3 has R
T7 peptide: NPETGEQIQSWYK(Biotin)
The procedure: as §1, §2, §3

The target in assay [8] is T8, epitope mapping peptide #17.
T8 construct: final K stands where DPP3 has R
T8 peptide: ETVINPETGEQIQSWYK(Biotin)
The method, then: as §1, §2, §3

In assay [9] the target is T9, epitope mapping peptide #16.
T9 construct: final K stands where DPP3 has R
T9 peptide: TVINPETGEQIQSWYK(Biotin)
The method, then:
as §1, §2, §3

The target of assay [10] is T10, epitope mapping peptide #8.
T10 peptide: Biotin-AFNFDQETVINPE
The procedure: as §1, §2, §3

The target of assay [11] is T11, epitope mapping peptide #1 (N-terminal biotin).
T11 peptide: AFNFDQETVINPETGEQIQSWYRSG
The method, then:
as §1, §2, §3

Assay [12] has as its target T12, epitope mapping peptide #6.
T12 peptide: Biotin-AFNFDQETVINPETG
The method, then: as §1, §2, §3

The target of assay [13] is T13, epitope mapping peptide #3.
T13 peptide: Biotin-AFNFDQETVINPETGEQI
The method, then:
as §1, §2, §3

Assay [14] addresses T14, epitope mapping peptide #11.
T14 construct: final K stands where DPP3 has R
T14 peptide: ETGEQIQSWYK(Biotin)
The procedure:
as §1, §2, §3

For assay [15], the target named is T15, epitope mapping peptide #15.
T15 construct: final K stands where DPP3 has R
T15 peptide: VINPETGEQIQSWYK(Biotin)
The procedure: as §1, §2, §3

The target of assay [16] is T16, epitope mapping peptide #4.
T16 peptide: Biotin-AFNFDQETVINPETGEQ
The method, then:
as §1, §2, §3

Ends that are not written are not given here. * marks the point of attachment. Biotin = O=C1N[C@H]2[C@H](CS[C@H]2CCCCC(=O)*)N1

B1: murine monoclonal anti-DPP3 antibody AK1967 (clone 1967) (antibody, V domains shown)
VH: QVTLKESGPGILQPSQTLSLTCSFSGFSLSTSGMSVGWIRQPSGKGLEWLAHIWWNDNKSYNPALKSRLTISRDTSNNQVFLKIASVVTADTGTYFCARNYSYDYWGQGTTLTVSS
VL: DVVVTQTPLSLSVSLGDPASISCRSSRSLVHSIGSTYLHWYLQKPGQSPKLLIYKVSNRFSGVPDRFSGSGSGTDFTLKISRVEAEDLGVYFCSQSTHVPWTFGGGTKLEIK
notes: Acridinium-labelled in the plate assays
For B1, the binding result in [1] is “binds”; in [2] it was “binds”; in assay [3], “no binding”; in [4], “binds”; in assay [5], “no binding”; in [6], “no binding”. The binding result in assay [7] was “no binding”; in assay [8], “binds”; in assay [9] it was “binds”; in assay [10], “no binding”; in assay [11], “binds”; in assay [12] it was “binds”. For the same molecule, the binding result was “binds” in [13], “no binding” in assay [14], “binds” in assay [15] and “binds” in [16].
